Each block holds one binder with its values, some of them ahead of it. Positions of bridges follow the written chain, without caps; N, C: chain ends. No end group written: not given here.
Tests used:
[1] = target: endothelial cell receptor for TKPPR on human aortic endothelial cells (HAEC); test: competition on HAEC: tuftsin 50 µM against 1% BRU-114 bubbles
[2] = target: endothelial cell receptor for TKPPR on human aortic endothelial cells (HAEC); test: competition on HAEC: tuftsin 10 µM against 1% BRU-114 bubbles
[3] = target: endothelial cell receptor for TKPPR on human aortic endothelial cells (HAEC); test: competition on HAEC: tuftsin 5 µM against 1% BRU-114 bubbles
[4] = target: endothelial cell receptor for TKPPR on human aortic endothelial cells (HAEC); test: competition on HAEC: tuftsin 25 µM against 1% BRU-114 bubbles
[5] = target: endothelial cell receptor for TKPPR on human aortic endothelial cells (HAEC); test: competition on HAEC: tuftsin 100 µM against 1% BRU-114 bubbles
VEGF receptors on HUVECs = test: competition of 125I-VEGF binding to HUVECs
[6] = target: endothelial cell receptor for TKPPR on human aortic endothelial cells (HAEC); test: competition on HAEC: free TKPPR 500 µM against TKPPR-beads, average n = 11
[7] = target: endothelial cell receptor for TKPPR on human aortic endothelial cells (HAEC); test: competition on HAEC: free TKPPR 10 µM against 1% BRU-292 bubbles, average of two
[8] = target: endothelial cell receptor for TKPPR on human aortic endothelial cells (HAEC); test: competition on HAEC: free TKPPR 25 µM against TKPPR-beads, average n = 11
[9] = target: endothelial cell receptor for TKPPR on human aortic endothelial cells (HAEC); test: competition on HAEC: free TKPPR 200 µM against 1% BRU-114 bubbles
[10] = target: endothelial cell receptor for TKPPR on human aortic endothelial cells (HAEC); test: competition on HAEC: free TKPPR 50 µM against 5% BRU-114 bubbles
[11] = target: endothelial cell receptor for TKPPR on human aortic endothelial cells (HAEC); test: competition on HAEC: free TKPPR 50 µM against 10% BRU-114 bubbles
[12] = target: endothelial cell receptor for TKPPR on human aortic endothelial cells (HAEC); test: competition on HAEC: free TKPPR 10 µM against 5% BRU-114 bubbles
[13] = target: endothelial cell receptor for TKPPR on human aortic endothelial cells (HAEC); test: competition on HAEC: free TKPPR 10 µM against 1% BRU-114 bubbles, average of two
[14] = target: endothelial cell receptor for TKPPR on human aortic endothelial cells (HAEC); test: competition on HAEC: free TKPPR 50 µM against 1% BRU-114 bubbles, average of two
[15] = target: endothelial cell receptor for TKPPR on human aortic endothelial cells (HAEC); test: competition on HAEC: free TKPPR 10 µM against 10% BRU-114 bubbles
[16] = target: endothelial cell receptor for TKPPR on human aortic endothelial cells (HAEC); test: competition on HAEC: free TKPPR (head: 10 µmol; text: 10 µM) against 5% BRU-114 bubbles
[17] = target: endothelial cell receptor for TKPPR on human aortic endothelial cells (HAEC); test: competition on HAEC: free TKPPR (head: 100 µmol; text: 100 µM) against 5% BRU-114 bubbles
[18] = target: endothelial cell receptor for TKPPR on human aortic endothelial cells (HAEC); test: competition on HAEC: free TKPPR 10 µM against 1% BRU-114 bubbles
[19] = target: endothelial cell receptor for TKPPR on human aortic endothelial cells (HAEC); test: competition on HAEC: free TKPPR 200 µM against TKPPR-beads, average n = 11
[20] = target: endothelial cell receptor for TKPPR on human aortic endothelial cells (HAEC); test: competition on HAEC: free TKPPR (head: 100 µmol; text: 100 µM) against 1% BRU-114 bubbles
[21] = target: endothelial cell receptor for TKPPR on human aortic endothelial cells (HAEC); test: competition on HAEC: free TKPPR 25 µM against 1% BRU-114 bubbles, average of two
[22] = target: endothelial cell receptor for TKPPR on human aortic endothelial cells (HAEC); test: competition on HAEC: free TKPPR 25 µM against 1% BRU-292 bubbles, average of two
[23] = target: endothelial cell receptor for TKPPR on human aortic endothelial cells (HAEC); test: competition on HAEC: free TKPPR (head: 10 µmol; text: 10 µM) against 1% BRU-114 bubbles
[24] = target: endothelial cell receptor for TKPPR on human aortic endothelial cells (HAEC); test: competition on HAEC: free TKPPR 100 µM against 10% BRU-114 bubbles
[25] = target: endothelial cell receptor for TKPPR on human aortic endothelial cells (HAEC); test: competition on HAEC: free TKPPR 2.5 µM against 1% BRU-114 bubbles, average of two
[26] = target: endothelial cell receptor for TKPPR on human aortic endothelial cells (HAEC); test: competition on HAEC: free TKPPR 50 µM against TKPPR-beads, average n = 11
[27] = target: endothelial cell receptor for TKPPR on human aortic endothelial cells (HAEC); test: competition on HAEC: free TKPPR 2.5 µM against 1% BRU-292 bubbles, average of two
[28] = target: endothelial cell receptor for TKPPR on human aortic endothelial cells (HAEC); test: competition on HAEC: free TKPPR 25 µM against 2% BRU-114 bubbles
[29] = target: endothelial cell receptor for TKPPR on human aortic endothelial cells (HAEC); test: competition on HAEC: free TKPPR 50 µM against 1% BRU-292 bubbles, average of two
[30] = target: endothelial cell receptor for TKPPR on human aortic endothelial cells (HAEC); test: competition on HAEC: free TKPPR 100 µM against 1% BRU-114 bubbles
[31] = target: endothelial cell receptor for TKPPR on human aortic endothelial cells (HAEC); test: competition on HAEC: free TKPPR 10 µM against TKPPR-beads, average n = 11
[32] = target: endothelial cell receptor for TKPPR on human aortic endothelial cells (HAEC); test: competition on HAEC: free TKPPR 5 µM against 1% BRU-114 bubbles
[33] = target: endothelial cell receptor for TKPPR on human aortic endothelial cells (HAEC); test: competition on HAEC: free TKPPR 200 µM against 5% BRU-114 bubbles
[34] = target: endothelial cell receptor for TKPPR on human aortic endothelial cells (HAEC); test: competition on HAEC: free TKPPR 200 µM against 10% BRU-114 bubbles
[35] = target: endothelial cell receptor for TKPPR on human aortic endothelial cells (HAEC); test: competition on HAEC: free TKPPR 25 µM against 1% BRU-114 bubbles
[36] = target: endothelial cell receptor for TKPPR on human aortic endothelial cells (HAEC); test: competition on HAEC: free TKPPR 50 µM against 1% BRU-114 bubbles
[37] = target: endothelial cell receptor for TKPPR on human aortic endothelial cells (HAEC); test: competition on HAEC: free TKPPR 100 µM against TKPPR-beads, average n = 11
[38] = target: endothelial cell receptor for TKPPR on human aortic endothelial cells (HAEC); test: competition on HAEC: free TKPPR 100 µM against 5% BRU-114 bubbles
[39] = target: receptor for TKPPR on rabbit aortic endothelial cells (RAEC); test: competition on RAEC: free TKPPR 100 µM against 5% BRU-114 bubbles
[40] = target: endothelial cell receptor for TKPPR on human aortic endothelial cells (HAEC); test: fluorescent beads on confluent HAEC, static, Experiment 1, image analysis
[41] = target: endothelial cell receptor for TKPPR on human aortic endothelial cells (HAEC); test: beads perfused over HAEC in a parallel plate flow cell, 1.53 dynes/cm^2
[42] = target: endothelial cell receptor for TKPPR on human aortic endothelial cells (HAEC); test: competition on HAEC: BRU-305 100 µM against 2% BRU-114 bubbles
[43] = target: endothelial cell receptor for TKPPR on human aortic endothelial cells (HAEC); test: competition on HAEC: BRU-305 200 µM against 2% BRU-114 bubbles
[44] = target: endothelial cell receptor for TKPPR on human aortic endothelial cells (HAEC); test: competition on HAEC: BRU-305 50 µM against 2% BRU-114 bubbles
[45] = target: endothelial cell receptor for TKPPR on human aortic endothelial cells (HAEC); test: competition on HAEC: BRU-306 200 µM against 2% BRU-114 bubbles
[46] = target: endothelial cell receptor for TKPPR on human aortic endothelial cells (HAEC); test: competition on HAEC: BRU-306 100 µM against 2% BRU-114 bubbles
[47] = target: endothelial cell receptor for TKPPR on human aortic endothelial cells (HAEC); test: competition on HAEC: BRU-306 50 µM against 2% BRU-114 bubbles

B1: TKPPR tetramer BRU-326, OG-(TKPPR)4 (peptide)
peptide: TKPPR-OH
modifications: not fully specified (N-terminus); printed as OG-(TKPPR)4; also: tetramer: four TKPPR chains joined via branched tetra-acid scaffold
IC50 (VEGF receptors on HUVECs): 10 µM

Binder: TKPPR-OH [TKPPR (L-threonyl-L-lysyl-L-prolyl-L-prolyl-L-arginine), free monomeric peptide]
% Inhibition [6]: 70.6%
Bubbles Bound-BRU-292 Formulation [7]: 833 bubbles
% Inhibition [8]: 50.7%
Bubbles Bound-1% [9]: 4 bubbles
IC50 (VEGF receptors on HUVECs): 250 µM
Bubbles Bound-5% [10]: 440 bubbles
Bubbles Bound-10% [11]: 857 bubbles
% more bubbles bound than without competitor [12]: 19%
Bubbles Bound-5% [12]: 1340 bubbles
Bubbles Bound-BRU-114 Formulation [13]: 535 bubbles
Bubbles Bound-BRU-114 Formulation [14]: 9 bubbles
Bubbles Bound-10% [15]: 1090 bubbles
Bubbles Bound [16]: 865 bubbles
Bubbles Bound [17]: 62 bubbles
% inhibition of bubble binding [18]: 82.7%
Average % Inhibition [18]: 79.6%
Bubbles Bound [18]: 528 bubbles
Bubbles Bound-1% [18]: 10 bubbles
% Inhibition [19]: 72.2%
Bubbles Bound [20]: 5 bubbles
Bubbles Bound-BRU-114 Formulation [21]: 75 bubbles
Bubbles Bound-BRU-292 Formulation [22]: 718 bubbles
Bubbles Bound [23]: 96 bubbles
Bubbles Bound-10% [24]: 399 bubbles
Bubbles Bound-BRU-114 Formulation [25]: 1240 bubbles
% Inhibition [26]: 50.5%
Bubbles Bound-BRU-292 Formulation [27]: 888 bubbles
Bubbles Bound % [28]: 16 % of control
Bubbles Bound-BRU-292 Formulation [29]: 462 bubbles
Average % Inhibition [30]: 93.7%
Bubbles Bound [30]: 17 bubbles
Bubbles Bound-1% [30]: 4 bubbles
% Inhibition [31]: 30.8%
Average % Inhibition [32]: 45.7%
Bubbles Bound [32]: 790 bubbles
Bubbles Bound-5% [33]: 13 bubbles
Bubbles Bound-10% [34]: 66 bubbles
Average % Inhibition [35]: 82%
Bubbles Bound [35]: 106 bubbles
Average % Inhibition [36]: 92.7%
Bubbles Bound [36]: 56 bubbles
Bubbles Bound-1% [36]: 5 bubbles
% Inhibition [37]: 62%
Bubbles Bound-5% [38]: 12 bubbles
HAEC bubbles bound [38]: 58 bubbles
RAEC bubbles bound [39]: 21 bubbles

Binder: CTKPPRC [Linear CTKPPRC (BRU-305)]
Bubbles Bound % [42]: 78 % of control
Bubbles Bound % [43]: 88 % of control
Bubbles Bound % [44]: 97 % of control

Binder: CTKPPRC-OH (disulfide 1-7 (inferred)) [Cyclic disulfide CTKPPRC (BRU-306)]
Bubbles Bound % [45]: 99 % of control
Bubbles Bound % [46]: 71 % of control
Bubbles Bound % [47]: 97 % of control

Binder: GRGDSP (also: coupled by EDAC to carboxylate-modified microspheres) [GRGDSP-conjugated fluorescent microspheres]
Integrated density of bound beads (arbitrary units) [40]: 28.6

More lines, now with the values ahead:

Bubbles Bound [1]: 904 bubbles
Bubbles Bound [2]: 976 bubbles
Bubbles Bound [3]: 1150 bubbles
Bubbles Bound [4]: 1170 bubbles
Bubbles Bound [5]: 556 bubbles
Binder: TKPR [Tuftsin (TKPR)]

Integrated density of bound beads (arbitrary units) [40]: 230
beads bound at 1.53 dynes/cm^2 [41]: 86 beads
Binder: TKPPR (also: coupled by EDAC to carboxylate-modified microspheres) [TKPPR-conjugated red fluorescent microspheres]
